This note sets out measurements from paper PMC4694823, “Tumorigenesis by Meis1 overexpression is accompanied by a change of DNA target-sequence specificity which allows binding to the AP-1 element”.

For data set [1], the target named is T1, Prep1 (pKnox1);Pbx1 (mouse?;mouse?, UniProt O70477;P41778 1-344;1-308, |).
T1 sequence 1: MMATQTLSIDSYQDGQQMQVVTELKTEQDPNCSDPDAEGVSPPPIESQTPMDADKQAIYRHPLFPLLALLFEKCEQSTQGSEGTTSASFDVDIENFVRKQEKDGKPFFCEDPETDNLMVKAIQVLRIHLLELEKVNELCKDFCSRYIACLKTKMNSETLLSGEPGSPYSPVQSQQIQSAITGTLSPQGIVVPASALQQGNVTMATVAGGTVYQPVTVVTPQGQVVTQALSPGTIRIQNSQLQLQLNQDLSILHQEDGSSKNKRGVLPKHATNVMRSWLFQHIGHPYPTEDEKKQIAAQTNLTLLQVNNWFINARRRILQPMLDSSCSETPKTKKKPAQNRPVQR
T1 sequence 2: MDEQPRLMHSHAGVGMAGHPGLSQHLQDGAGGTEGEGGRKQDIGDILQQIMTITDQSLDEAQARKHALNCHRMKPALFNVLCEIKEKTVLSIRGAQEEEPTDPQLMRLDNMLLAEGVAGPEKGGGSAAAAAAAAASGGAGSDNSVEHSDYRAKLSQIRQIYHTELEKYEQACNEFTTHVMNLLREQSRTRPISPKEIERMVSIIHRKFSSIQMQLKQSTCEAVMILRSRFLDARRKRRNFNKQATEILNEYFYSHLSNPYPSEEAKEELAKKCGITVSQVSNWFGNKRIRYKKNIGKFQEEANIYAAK
The data set can be described thus: EMSA; 15 uL reactions with 5% glycerol, 1 ug poly-dIdC, 1.3 uM ds oligo, 12 ug Meis1/Pbx1 or 7 ug Prep1/Pbx1; 30 min on ice; 5-15% native PAGE, GelRed stain; buffer. The following applies: protein: recombinant;recombinant; tags: GST fusion from modified pGEX6p-2rbs; copies: 1;1; blunt. (In EMSA bound probe runs differently from free probe, usually more slowly.)

Data set [2] concerns the target T2, Meis1;Pbx1 (mouse?;mouse?, UniProt Q60954;P41778 1-390;1-308, |).
T2 sequence 1: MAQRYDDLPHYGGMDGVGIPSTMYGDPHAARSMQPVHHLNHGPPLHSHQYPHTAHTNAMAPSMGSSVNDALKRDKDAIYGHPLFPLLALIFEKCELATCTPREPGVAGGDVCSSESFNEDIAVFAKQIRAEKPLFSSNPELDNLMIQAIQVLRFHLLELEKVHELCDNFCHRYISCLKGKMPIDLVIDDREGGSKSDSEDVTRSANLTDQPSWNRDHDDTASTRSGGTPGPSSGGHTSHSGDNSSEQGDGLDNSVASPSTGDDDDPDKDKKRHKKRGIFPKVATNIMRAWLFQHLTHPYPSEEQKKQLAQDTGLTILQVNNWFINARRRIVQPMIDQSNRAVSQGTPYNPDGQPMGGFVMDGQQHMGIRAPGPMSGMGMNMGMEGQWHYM
T2 sequence 2: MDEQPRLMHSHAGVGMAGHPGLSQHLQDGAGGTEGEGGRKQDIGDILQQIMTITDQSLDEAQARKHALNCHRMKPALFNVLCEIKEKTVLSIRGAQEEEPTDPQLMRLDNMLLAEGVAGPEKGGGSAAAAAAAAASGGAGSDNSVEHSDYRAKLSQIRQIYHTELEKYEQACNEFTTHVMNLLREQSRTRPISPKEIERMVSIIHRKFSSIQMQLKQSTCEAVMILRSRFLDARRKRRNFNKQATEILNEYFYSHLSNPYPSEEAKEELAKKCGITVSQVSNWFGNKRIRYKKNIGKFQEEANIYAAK
The description is as above. The following applies: protein: recombinant;recombinant; tags: GST fusion from modified pGEX6p-2rbs; copies: 1;1; blunt.

The target of data set [3] is T2, Meis1;Pbx1. The data set can be described thus: EMSA; binds at lower protein:DNA ratio than AP1; 15 uL reactions with 5% glycerol, 1 ug poly-dIdC, 1.3 uM ds oligo, 12 ug Meis1/Pbx1 or 7 ug Prep1/Pbx1; 30 min on ice; 5-15% native PAGE, GelRed stain; buffer. The following applies: protein: recombinant;recombinant; tags: GST fusion from modified pGEX6p-2rbs; copies: 1;1; blunt.

The next data set has as its target c-Fos;c-Jun (;, UniProt P01100;P05412 1-380;1-331, |). The data set can be described thus: EMSA; 15 uL reactions with 5% glycerol, 1 ug poly-dIdC, 1.3 uM ds oligo, 12 ug Meis1/Pbx1 or 7 ug Prep1/Pbx1; 30 min on ice; 5-15% native PAGE, GelRed stain; buffer. The note with it: protein: commercial;commercial; tags: ;; copies: 1;1; blunt.
For data set [4], the target named is T2, Meis1;Pbx1. The data set can be described thus: EMSA; needs higher protein:DNA ratio than OCTA; 15 uL reactions with 5% glycerol, 1 ug poly-dIdC, 1.3 uM ds oligo, 12 ug Meis1/Pbx1 or 7 ug Prep1/Pbx1; 30 min on ice; 5-15% native PAGE, GelRed stain; buffer. The following applies: protein: recombinant;recombinant; tags: GST fusion from modified pGEX6p-2rbs; copies: 1;1; blunt.

The target of data set [5] is T1, Prep1 (pKnox1);Pbx1. Nature of the data set: EMSA; binds also at low protein:DNA ratio; AP1 oligo taken as the only printed single AP1 oligo; 15 uL reactions with 5% glycerol, 1 ug poly-dIdC, 1.3 uM ds oligo, 12 ug Meis1/Pbx1 or 7 ug Prep1/Pbx1; 30 min on ice; 5-15% native PAGE, GelRed stain; buffer. The note with it: protein: recombinant;recombinant; tags: GST fusion from modified pGEX6p-2rbs; copies: 1;1; blunt.

c-Fos;c-Jun, sequence (P01100 whole entry, chain 1 of 2, the tested form may be a part): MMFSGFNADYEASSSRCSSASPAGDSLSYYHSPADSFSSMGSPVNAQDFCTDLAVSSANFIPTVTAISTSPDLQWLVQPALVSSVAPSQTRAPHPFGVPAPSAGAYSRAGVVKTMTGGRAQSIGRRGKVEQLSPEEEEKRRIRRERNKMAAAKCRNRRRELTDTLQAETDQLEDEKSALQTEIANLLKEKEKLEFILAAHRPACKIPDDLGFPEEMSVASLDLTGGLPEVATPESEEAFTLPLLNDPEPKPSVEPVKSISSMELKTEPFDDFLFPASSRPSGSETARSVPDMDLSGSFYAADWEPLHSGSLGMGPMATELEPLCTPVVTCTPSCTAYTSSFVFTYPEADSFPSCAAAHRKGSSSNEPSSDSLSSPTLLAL
c-Fos;c-Jun, sequence (P05412 whole entry, chain 2 of 2, the tested form may be a part): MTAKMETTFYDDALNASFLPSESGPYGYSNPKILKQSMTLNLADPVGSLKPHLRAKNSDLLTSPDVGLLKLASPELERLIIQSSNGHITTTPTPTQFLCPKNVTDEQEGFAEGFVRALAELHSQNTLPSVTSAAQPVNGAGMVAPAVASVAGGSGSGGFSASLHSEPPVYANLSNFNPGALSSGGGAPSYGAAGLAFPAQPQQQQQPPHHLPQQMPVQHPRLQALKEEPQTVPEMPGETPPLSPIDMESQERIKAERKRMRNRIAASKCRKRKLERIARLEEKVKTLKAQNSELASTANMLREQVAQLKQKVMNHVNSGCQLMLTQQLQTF

B1: AP1+DECA (dsDNA)
DNA 1: TAAAATGCTGAGTCACTGACTGACAGCTTTAGGCT
DNA 2: AGCCTAAAGCTGTCAGTCAGTGACTCAGCATTTTA
Regarding B1, in the data set with Prep1 (pKnox1);Pbx1 [1], the binding result is reported as “binds”.

B2: OCTA+AP1 (dsDNA)
DNA 1: ATTATAGTGATGAATCATCATGACTCATGGTCCAG
DNA 2: CTGGACCATGAGTCATGATGATTCATCACTATAAT
Consider B2, for which the binding result with Meis1;Pbx1 [2] is “binds”.

B3: OCTA (dsDNA)
DNA 1: GAAAGTGATAAATAATACAAGGAAAGC
DNA 2: GCTTTCCTTGTATTATTTATCACTTTC
B3: in the data set with Meis1;Pbx1 [3], the binding result is “binds”.

B4: AP1 (dsDNA)
DNA 1: CATTACCATGAGTCATTGGGCTTGCTC
DNA 2: GAGCAAGCCCAATGACTCATGGTAATG
B4: the binding result with c-Fos;c-Jun, with Meis1;Pbx1 [4] and in the data set with Prep1 (pKnox1);Pbx1 [5] was “binds” throughout.

B5: DECA (dsDNA)
DNA 1: AGCTGACCTCTGAGTGACAGGGTGGAATGTGA
DNA 2: TCACATTCCACCCTGTCACTCAGAGGTCAGCT
Regarding B5, the binding result with Prep1 (pKnox1);Pbx1 [1] is “binds”.
